Results from the supplement of paper PMC10567573.

B1: FAM50A (parent)
chain: HIFPASRWEPYDPEKKWDKYTIR

Variants of: B1
Experiment: protein stability index of a GFP-peptide fusion (GPS, HEK-293T) (PSI 1-6); higher = more stable
Details: c terminus: native
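Note: lentivirally expressed fusions sorted by FACS into six bins by GFP to DsRed ratio, PSI derived from sequencing read proportions per bin multiplied by bin number.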

Variant	protein stability index
HIFPASRWEPYDPEKKWYKYTIR [D18Y]	2.39
HIFPASRWEPYDPEKKWRKYTIR [D18R]	2.01
HIFPASRWEPYDPEKKWDKYSIR [T21S]	1.89
HIFPASRWEPYDPEKKWDKYIIR [T21I]	1.74
HIFPASRWEPYDPEKKWDKYCIR [T21C]	1.97
HIFPASRWEPYDPEKKWDKYYIR [T21Y]	2.71
HIFPASRWEPYDPEKKWDKYAIR [T21A]	2.08
HIFPASRWEPYDPEKKWDKYGIR [T21G]	2.38
HIFPASRWEPYDPEKKWDKYRIR [T21R]	2.38
HIFPASRWEPYDPEKKWDKYEIR [T21E]	2.7
HIFPASRWEPYDPEKKWDKYFIR [T21F]	2.06
HIFPASRWEPYDPEKKWDKYPIR [T21P]	2.36
HIFPASRWEPYDPEKKWDKYNIR [T21N]	2.54
HIFPASRWEPYDPEKKWDKYMIR [T21M]	2.08
HIFPASRWEPYDPEKKWDKYKIR [T21K]	1.93
HIFPASRWEPYDPEKKWDKYVIR [T21V]	2.55
HIFPASRWEPYDPEKKWDKYWIR [T21W]	2.86
HIFPASRWEPYDPEKKWDKYHIR [T21H]	2.2
HIFPASRWEPYDPEKKWDKYLIR [T21L]	2.32
HIFPASRWEPYDPEKKWDKYQIR [T21Q]	2.18
HIFPASRWEPYDPEKKWDKKTIR [Y20K]	2.6
HIFPASRWEPYDPEKKWDKETIR [Y20E]	2.02
HIFPASRWEPYDPEKKWDKCTIR [Y20C]	1.77
HIFPASRWEPYDPEKKWDKSTIR [Y20S]	2.74

Variant	protein stability index
HIFPASRWEPYDPEKKWDKFTIR [Y20F]	2.67
HIFPASRWEPYDPEKKWDKDTIR [Y20D]	3.29
HIFPASRWEPYDPEKKWDKATIR [Y20A]	1.86
HIFPASRWEPYDPEKKWDKITIR [Y20I]	1.49
HIFPASRWEPYDPEKKWDKVTIR [Y20V]	2.28
HIFPASRWEPYDPEKKWDKLTIR [Y20L]	2.26
HIFPASRWEPYDPEKKWDKWTIR [Y20W]	2.96
HIFPASRWEPYDPEKKWDKHTIR [Y20H]	2.74
HIFPASRWEPYDPEKKWDKGTIR [Y20G]	2.16
HIFPASRWEPYDPEKKWDKRTIR [Y20R]	2.81
HIFPASRWEPYDPEKKWDKNTIR [Y20N]	2.73
HIFPASRWEPYDPEKKWDKMTIR [Y20M]	2.2
HIFPASRWEPYDPEKKWDKPTIR [Y20P]	2.93
HIFPASRWEPYDPEKKWDKQTIR [Y20Q]	2.48
HIFPASRWEPYDPEKKWDKTTIR [Y20T]	3.05
HIFPASRWEPYDPEKKWDKYTIN [R23N]	2.27
HIFPASRWEPYDPEKKWDKYTIK [R23K]	2.4
HIFPASRWEPYDPEKKWDKYTID [R23D]	2.58
HIFPASRWEPYDPEKKWDKYTIE [R23E]	2.04
HIFPASRWEPYDPEKKWDKYTIV [R23V]	2.27
HIFPASRWEPYDPEKKWDKYTIW [R23W]	1.72
HIFPASRWEPYDPEKKWDKYTIT [R23T]	1.87
HIFPASRWEPYDPEKKWDKYTII [R23I]	2.21
HIFPASRWEPYDPEKKWDKYTIY [R23Y]	2.1

Variant	protein stability index
HIFPASRWEPYDPEKKWDKYTIL [R23L]	2.54
HIFPASRWEPYDPEKKWDKYTIP [R23P]	3.67
HIFPASRWEPYDPEKKWDKYTIF [R23F]	1.85
HIFPASRWEPYDPEKKWDKYTIQ [R23Q]	2.12
HIFPASRWEPYDPEKKWDKYTIC [R23C]	2.08
HIFPASRWEPYDPEKKWDKYTIG [R23G]	2.59
HIFPASRWEPYDPEKKWDKYTIS [R23S]	2.1
HIFPASRWEPYDPEKKWDKYTIH [R23H]	2.2
HIFPASRWEPYDPEKKWDKYTIA [R23A]	3.17
HIFPASRWEPYDPEKKWDKYTIM [R23M]	2.1
HIFPASRWEPYDPEKKWDKYTWR [I22W]	2.06
HIFPASRWEPYDPEKKWDKYTHR [I22H]	2.19
HIFPASRWEPYDPEKKWDKYTGR [I22G]	2.29
HIFPASRWEPYDPEKKWDKYTYR [I22Y]	2.98
HIFPASRWEPYDPEKKWDKYTPR [I22P]	3.88
HIFPASRWEPYDPEKKWDKYTRR [I22R]	1.59
HIFPASRWEPYDPEKKWDKYTER [I22E]	2.25
HIFPASRWEPYDPEKKWDKYTCR [I22C]	2.15
HIFPASRWEPYDPEKKWDKYTVR [I22V]	2.75
HIFPASRWEPYDPEKKWDKYTAR [I22A]	2.03
HIFPASRWEPYDPEKKWDKYTNR [I22N]	3.07
HIFPASRWEPYDPEKKWDKYTKR [I22K]	3.3
HIFPASRWEPYDPEKKWDKYTMR [I22M]	2.05
HIFPASRWEPYDPEKKWDKYTTR [I22T]	2.62

Variant	protein stability index
HIFPASRWEPYDPEKKWDKYTQR [I22Q]	2.91
HIFPASRWEPYDPEKKWDKYTLR [I22L]	2.25
HIFPASRWEPYDPEKKWDKYTFR [I22F]	2.92
HIFPASRWEPYDPEKKWDKYTDR [I22D]	2.02
HIFPASRWEPYDPEKKWDKYTSR [I22S]	2.72
HIFPASRWEPYDPEKKWDTYTIR [K19T]	3.02
HIFPASRWEPYDPEKKWDPYTIR [K19P]	2.3
HIFPASRWEPYDPEKKWDIYTIR [K19I]	2.22
HIFPASRWEPYDPEKKWDGYTIR [K19G]	2.84
HIFPASRWEPYDPEKKWDYYTIR [K19Y]	1.35
HIFPASRWEPYDPEKKWDWYTIR [K19W]	3.02
HIFPASRWEPYDPEKKWDHYTIR [K19H]	2.03
HIFPASRWEPYDPEKKWDEYTIR [K19E]	2.53
HIFPASRWEPYDPEKKWDQYTIR [K19Q]	2.63
HIFPASRWEPYDPEKKWDRYTIR [K19R]	2.6
HIFPASRWEPYDPEKKWDVYTIR [K19V]	1.31
HIFPASRWEPYDPEKKWDLYTIR [K19L]	2.04
HIFPASRWEPYDPEKKWDAYTIR [K19A]	2.18
HIFPASRWEPYDPEKKWDDYTIR [K19D]	2.24
HIFPASRWEPYDPEKKWDFYTIR [K19F]	2.25
HIFPASRWEPYDPEKKWDMYTIR [K19M]	1.9
HIFPASRWEPYDPEKKWDSYTIR [K19S]	1.89
HIFPASRWEPYDPEKKWDNYTIR [K19N]	2.52
HIFPASRWEPYDPEKKWDCYTIR [K19C]	1.81
